Laboratory results taken from patent US20050147687A1, “Methods for fabrication, uses and compositions of small spherical particles of AAT prepared by controlled phase separation” (priority 2003, published 2005).

Molecular target: porcine pancreatic elastase (PPE) (Sus scrofa, UniProt P00772)
Assay: Inhibition of porcine pancreatic elastase by rAAT (specific activity)
Type: biochemical
Description: To determine the specific activity, the rAAT small spherical particles were dissolved in 0.2M Tris-HCl pH 8.0 at room temperature. The resulting solution was analyzed by an assay which measures the capacity of rAAT to inhibit the ability of porcine pancreatic elastase (PPE) to hydrolyze synthetic peptides that contain a p-nitroanilide group at their C-terminus. The same solution of rAAT small spherical particles was then assayed for protein concentration using the Bicinchoninic Acid (BCA) assay. A control rAAT starting material solution was also analyzed in both assays. Because the activity assay was developed to determine the activity based on a concentration of 1 mg/ml protein per sample, the activity value was corrected based on the actual protein concentration as determined by BCA, giving the specific activity value: [formula]

porcine pancreatic elastase (PPE), sequence (P00772 27-266): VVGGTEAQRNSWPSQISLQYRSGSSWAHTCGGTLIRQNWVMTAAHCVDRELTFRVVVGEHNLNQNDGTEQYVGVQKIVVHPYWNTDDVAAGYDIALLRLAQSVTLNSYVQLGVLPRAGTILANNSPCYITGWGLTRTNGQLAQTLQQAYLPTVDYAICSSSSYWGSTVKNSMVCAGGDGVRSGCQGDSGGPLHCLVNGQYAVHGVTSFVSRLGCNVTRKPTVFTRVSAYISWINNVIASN

control rAAT starting material: control solution of recombinant alpha-1-antitrypsin starting material
specific activity, inhibition of porcine pancreatic elastase (scale 100-300 mg (n = 12, column)): 64.34 ± 4.95 IU/mg | specific activity, inhibition of porcine pancreatic elastase (scale 200-300 mg (n = 8, vessel)): 65.87 ± 0.98 IU/mg
